This note sets out measurements from patent publication US9175313B2, “Three-dimensional structure of isoprene synthase and its use thereof for generating variants” (Danisco US Inc., priority 2009, dated 2015).

The labels stand for the following.
B1: D345P: P. alba IspS variant (protein, UniProt Q50L36 38-595, looked up, variant D345P)
Isoprene synthase, …: CSVSTENVSFTETETEARRSANYEPNSWDYDYLLSSDTDESIEVYKDKAKKLEAEVRREINNEKAEFLTLLELIDNVQRLGLGYRFESDIRGALDRFVSSGGFDAVTKTSLHGTALSFRLLRQHGFEVSQEAFSGFKDQNGNFLENLKEDIKAILSLYEASFLALEGENILDEAKVFAISHLKELSEEKIGKELAEQVNHALELPLHRRTQRLEAVWSIEAYRKKEDANQVLLELAILDYNMIQSVYQRDLRETSRWWRRVGLATKLHFARDRLIESFYWAVGVAFEPQYSDCRNSVAKMFSFVTIIPDIYDVYGTLDELELFTDAVERWDVNAINDLPDYMKLCFLALYNTINEIAYDNLKDKGENILPYLTKAWADLCNAFLQEAKWLYNKSTPTFDDYFGNAWKSSSGPLQLVFAYFAVVQNIKKEEIENLQKYHDTISRPSHIFRLCNDLASASAEIARGETANSVSCYMRTKGISEELATESVMNLIDETWKKMNKEKLGGSLFAKPFVETAINLARQSHCTYHNGDAHTSPDELTRKRVLSVITEPILPFER
B2: D345T: P. alba IspS variant (protein, UniProt Q50L36 38-595, looked up, variant D345T)
Isoprene synthase, …: B1 Isoprene synthase, … with P308T
B3: D345L: P. alba IspS variant (protein, UniProt Q50L36 38-595, looked up, variant D345L)
Isoprene synthase, …: B1 Isoprene synthase, … with P308L
B4: D345A: P. alba IspS variant (protein, UniProt Q50L36 38-595, looked up, variant D345A)
Isoprene synthase, …: B1 Isoprene synthase, … with P308A
B5: D345N: P. alba IspS variant (protein, UniProt Q50L36 38-595, looked up, variant D345N)
Isoprene synthase, …: B1 Isoprene synthase, … with P308N
B6: D345S: P. alba IspS variant (protein, UniProt Q50L36 38-595, looked up, variant D345S)
Isoprene synthase, …: B1 Isoprene synthase, … with P308S
B7: D345E: P. alba IspS variant (protein, UniProt Q50L36 38-595, looked up, variant D345E)
Isoprene synthase, …: B1 Isoprene synthase, … with P308E
B8: D345W: P. alba IspS variant (protein, UniProt Q50L36 38-595, looked up, variant D345W)
Isoprene synthase, …: B1 Isoprene synthase, … with P308W
B9: D345M: P. alba IspS variant (protein, UniProt Q50L36 38-595, looked up, variant D345M)
Isoprene synthase, …: B1 Isoprene synthase, … with P308M
B10: D345Y: P. alba IspS variant (protein, UniProt Q50L36 38-595, looked up, variant D345Y)
Isoprene synthase, …: B1 Isoprene synthase, … with P308Y
B11: H515H: SEL member with the wild type residue at site 515 (wild type codon substituted) (protein, UniProt Q50L36 38-595, looked up)
Isoprene synthase, …: B1 Isoprene synthase, … with P308D
B12: D345I: P. alba IspS variant (protein, UniProt Q50L36 38-595, looked up, variant D345I)
Isoprene synthase, …: B1 Isoprene synthase, … with P308I
B13: D345V: P. alba IspS variant (protein, UniProt Q50L36 38-595, looked up, variant D345V)
Isoprene synthase, …: B1 Isoprene synthase, … with P308V
B14: D345G: P. alba IspS variant (protein, UniProt Q50L36 38-595, looked up, variant D345G)
Isoprene synthase, …: B1 Isoprene synthase, … with P308G
B15: L469L: SEL member with the wild type residue at site 469 (wild type codon substituted) (protein, UniProt Q50L36 38-595, looked up)
Isoprene synthase, …: B1 Isoprene synthase, … with P308D
B16: D345C: P. alba IspS variant (protein, UniProt Q50L36 38-595, looked up, variant D345C)
Isoprene synthase, …: B1 Isoprene synthase, … with P308C
B17: D345Q: P. alba IspS variant (protein, UniProt Q50L36 38-595, looked up, variant D345Q)
Isoprene synthase, …: B1 Isoprene synthase, … with P308Q
B18: D345K: P. alba IspS variant (protein, UniProt Q50L36 38-595, looked up, variant D345K)
Isoprene synthase, …: B1 Isoprene synthase, … with P308K

Positions count from the first letter of the chain named. Numbers in names are those of the source.

This series can be described thus: DMAPP assay of site evaluation library (SEL) lysates with ELISA protein quantitation: specific activity ranked as performance index. It is filed as biochemical. The following applies: primary SEL screen; activity on DMAPP per unit weight relative to the parental molecule (parent = 1). Here is the method:
1. Prepared Patch Plates from Glycerol Stock Plates. Using a V&S 96 pin Replication Tool, cultures were patched onto a LB Agar 35 CMP/50 Kan large patch plates from overnight glycerol stock plates. Plates were incubated at 30° C. overnight for 20 to 24 hr. Cultures can be stored at 4° C. for up to a week.
2. Prepared Overnight Growth Plates. 500 mL of LB 35 CMP/50 Kan media were prepared. 300 μL/well of LB 35 CMP/50 Kan media were dispensed into deep 96 well plates (VWR). Using a V&S Replication Tool, the patch inoculum was transferred into deep 96 well plate by touching the tool pins to respective patch and using a circular motion to coat the pins with inoculum. The media was inoculated by dipping the tool then shaking the pin within the well. The overnight growth plates were sealed using a Breathe-Easier Sealing Membrane (Diversified Biotech). The plates were incubated in a Vertiga Shaking Incubator at 30° C. with shaking at 800 rpm overnight for 16 to 18 hr.
3. Prepared Day Growth Plate. Deep 96 well plates were prepared by dispensing 588 μL/well of LB 35 CMP/50 Kan media. Overnight growth plates were removed from the incubator. Overnight cultures were diluted 50-fold and 12 μL of overnight culture were transferred to day growth plates containing 588 μL/well of LB media containing antiobiotics. Overnight growth plates were sealed with new Breathe-Easier Sealing Membranes. Cultures were incubated at 30° C. and 800 rpm for 2.5 hr. Frozen 12 mM IPTG (Sigma) vials were removed from −20° C. and placed in a hood to thaw.
4. OD600 Plate Read of Overnight, Induction, and Harvest. 150 μL 1×PBS were dispensed into 96 well Costar Read Plates (#9017). 50 μL of culture samples were transferred to Read Plates. The OD600 reading was recorded using a Spectramax Plate Reader (Molecular Devices).
5. Induction. Electronic multi-channel pipettors were prepared to dispense 4×20 μL/well of IPTG (if 4× replicates). The multi-dispense option in the electronic pipettor was adjusted if more replicates was necessary. Thawed 12 mM IPTG was poured into 50 mL or 100 mL sterile reservoirs. 20 μL/well of IPTG into each 600 μL/well culture. Overnight growth plates were resealed. Cultures were incubated at 30° C. and 800 rpm for 4 hr. OD600 readings of plates were recorded according instructions above.
6. Harvest. 400 μL of induced culture were transferred to 800 μL Grenier storage plates. Plates were centrifuged at 3300 rpm for 20 min at 2° to 8° C. in a low speed benchtop centrifuge. Supernatants were discarded, pellets should stay in the conical bottom well. Residual supernatants were slapped out onto a paper towel on the benchtop. Plates were sealed with an aluminum foil membrane (Beckman-Coulter). Plates were covered with a plastic plate lid if available. Storage plates were labeled accordingly and stored frozen at −80° C.
Plates containing induced cell pellets were removed from the −80° C. freezer and allowed to thaw on the benchtop for 30 minutes prior to lysis. 200 μl of lysis buffer (50 mM Tris pH 8, 25 mM MgCl2, 74 μg/ml DNase I, 250 U/ml lysozyme, 0.1% Tween 20, 0.5 mM PMSF) was added to each pellet, and plates were incubated on an Eppendorf Thermomixer at 25° C. for 30 minutes at 1200 rpm. After lysis, plates were centrifuged at 3450 rpm for 15 minutes at 4° C. Supernatants were then removed and diluted 10-fold prior to DMAPP assay. 80 μl of the diluted supernatant was added to 20 μl of the DMAPP working stock (20 mM DMAPP in 0.1 M Phosphate Buffer pH 8.2, DMAPP triammonium salt, Cayman chemicals) in a Zinsser glass block. Blocks were then sealed with aluminum sealing membranes, and incubated in Thermomixers at 25° C. for 30 minutes at 450 rpm. Reactions were stopped by incubating blocks on Thermomixers at 70° C. for 12 minutes at 450 rpm. GC-MS was then used for headspace measurements to calculate the amount of isoprene produced by each lysates.
Headspace Assay. […]
(In general: In an ELISA, binding on a coated surface is turned into a signal by an enzyme label.)
For B1, the performance index was 0.35.

As for B2, the performance index turned out to be 0.56.

B3: the performance index is 0.65.

Take B4: the performance index amounted to 0.50.

Take B5: the performance index is reported as 0.58.

B6: the performance index worked out at 0.41.

B7: the performance index was 0.61.

With B8, the performance index is listed as 0.46.

For the molecule B9, the performance index amounted to 0.43.

With B10, the performance index came out at 0.84.

Turning to B11, the performance index was determined as 0.81.

Consider B12, for which the performance index came to 0.73.

As for B13, the performance index is on record as 0.51.

On to B14, for which the performance index was 0.55.

Consider B15, for which the performance index was 0.96.

Consider B16, for which the performance index is given as 0.43.

For B17, the performance index is on record as 0.56.

As for B18, the performance index came out at 0.69.
